Source: patent US20240010748A1 (SHANGHAI QILU PHARMACEUTICAL RESEARCH AND DEVELOPMENT CENTRE, published 2024)

B1: 31905-44AA (bispecific antibody, human IgG1, kappa, L234A L235A)
heavy 1: not shown
heavy 2: QVQLVQSGAEVKKPGASVKVSCKASGYIFTNYWIHWVRQAPGQGLEWMGRIYPGTGNTYYNEKFTGRVTMTRDTSTSTVYMELSSLRSEDTAVYYCAREGYGKGNSMDYWGQGTTVTVSSASTKGPSVFPLAPSSKSTSGGTAALGCLVKDYFPEPVTVSWNSGALTSGVHTFPAVLQSSGLYSLSSVVTVPSSSLGTQTYICNVNHKPSNTKVDKKVEPKSCDKTHTCPPCPAPEAAGGPSVFLFPPKPKDTLMISRTPEVTCVVVDVSHEDPEVKFNWYVDGVEVHNAKTKPREEQYNSTYRVVSVLTVLHQDWLNGKEYKCKVSNKALPAPIEKTISKAKGQPREPQVCTLPPSRDELTKNQVSLSCAVKGFYPSDIAVEWESNGQPENNYKTTPPVLDSDGSFFLVSKLTVDKSRWQQGNVFSCSVMHEALHNRYTQKSLSLSPGK
light: not shown
notes: Full-length 6#AA with one anti-CD3 scFv of h160C9AA on the C-terminus of one heavy chain; knob-into-hole; Fc with L234A/L235A; also called anti-CD3-CLDN18.2 bispecific antibody; CD3 monovalent antibody
B2: 6#AA (antibody, human IgG1, kappa, L234A L235A, V domains shown)
VH: QVQLVQSGAEVKKPGASVKVSCKASGYIFTNYWIHWVRQAPGQGLEWMGRIYPGTGNTYYNEKFTGRVTMTRDTSTSTVYMELSSLRSEDTAVYYCAREGYGKGNSMDYWGQGTTVTVSS
VL: DIVMTQSPDSLAVSLGERVTMNCKSSQSLLNAGNQKNYLTWYQQKPGQPPKLLFYWASTRESGVPDRFSGSGSGTDFTLTISSVQAEDVAVYHCQNAYYYPYTFGGGTKLEIKR
notes: Anti-human CLDN18.2 full-length antibody, IgG1 Fc with L234A/L235A
B3: h160C9AA (antibody, human IgG1, lambda, L234A L235A, V domains shown)
VH: EVKLVESGGGLVQPGGSLKLSCAASGFTFNTYAMNWVRQAPGKGLEWVARIRSKYNNYATYYADSVKDRFTISRDDAKNTLYLQMNNLRTEDTAVYYCVRHGNFGNSYVSWFAYWGQGTLVTVSS
VL: QAVVTQEPSLTVSPGGTVTLTCRSSTGAVTTSNYANWVQQKPGQAPRGLIGGTNKRAPGTPARFSGSLLGGKAALTLSGAQPEDEAEYYCALWYSNLWVFGGGTKLTVLG
notes: Anti-CD3 full-length antibody, Fc with L234A/L235A

Key:
[1] = molecular target: T1, human Claudin 18.2 (hCLDN18.2) on stably-transfected HEK293 cells (human, UniProt P56856-2 1-261); assay: cell-based or functional assay
T1 sequence (looked up): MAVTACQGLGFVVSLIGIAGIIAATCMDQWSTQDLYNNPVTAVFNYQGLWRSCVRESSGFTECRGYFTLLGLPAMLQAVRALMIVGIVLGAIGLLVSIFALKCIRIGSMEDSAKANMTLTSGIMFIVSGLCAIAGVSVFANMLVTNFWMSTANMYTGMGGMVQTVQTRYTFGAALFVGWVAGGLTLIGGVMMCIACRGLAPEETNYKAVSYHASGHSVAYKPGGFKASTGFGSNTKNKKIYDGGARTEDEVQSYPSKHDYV

[2] = molecular target: T2, Cynomolgus macaques Claudin 18 (cynoCLDN18) on stably-transfected HEK293 cells (Cynomolgus macaques, UniProt A0A2K5VVB4 1-261); assay: FACS on HEK293-cynoCLDN18 cells
T2 chain: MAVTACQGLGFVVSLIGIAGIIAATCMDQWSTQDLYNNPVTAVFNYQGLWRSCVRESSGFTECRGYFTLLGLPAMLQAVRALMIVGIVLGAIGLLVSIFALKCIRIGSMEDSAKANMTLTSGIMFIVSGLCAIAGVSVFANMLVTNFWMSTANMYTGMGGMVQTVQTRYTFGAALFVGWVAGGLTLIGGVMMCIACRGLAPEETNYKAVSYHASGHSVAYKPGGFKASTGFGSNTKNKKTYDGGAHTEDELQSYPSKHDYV

[3] = molecular target: T3, human CD3 (hCD3) naturally expressed on Jurkat cells (human, UniProt P07766 23-207); assay: cell-based or functional assay
[4] = molecular target: T3, human CD3 (hCD3) naturally expressed on …; assay: FACS on Jurkat cells
Description: (§1) The binding situation of the anti-CD3-CLDN18.2 bispecific antibodies to stably-transfected HEK293 cells expressing hCLDN18.2 (HEK293-hCLDN18.2) and T lymphocytes naturally expressing hCD3 (Jurkat) were detected by using FACS.
(§2) HEK293-hCLDN18.2 or Jurkat cells were collected and re-suspended with FACS buffer (PBS+1% BSA+0.5 mM EDTA), after adjusting the cell concentration, 1E5 cells per well were added into a 96-well plate, and then the antibody after gradient dilution was added according to the preset concentration, wherein the negative control was human IgG1AA (Negative-IgG1AA), the positive control of CLDN18.2 was antibody 6#AA, and the positive control of CD3 was antibody h160C9AA. Following incubation in a 4° C. shaking table for 2 h, the mixture was centrifugally washed twice with FACS buffer, added with fluorescently labeled anti-human IgG secondary antibody, 100 μL per well; after incubation in a 4° C. shaking table for 1 h, the mixture was centrifugally washed twice with FACS buffer, the cells were filtered to a 96-well plate, and then the prepared sample was detected on a flow cytometer; the mean fluorescence intensity (hereinafter referred to as MFI) for each concentration was calculated by software, and then the median effective concentration (hereinafter referred to as EC₅₀) and the top mean fluorescence intensity (Top MFI) were calculated by GraphPad software, and the results were shown in Table 3.

human CD3 E&D protein = molecular target: T4, human CD3 E&D protein (human, UniProt P07766 23-126; P04234 22-105); assay: SPR (Biacore 8K), CD3 E&D immobilised by amino coupling, antibody as analyte, 1:1 fit
T4 construct: Soluble CD3 epsilon and delta protein immobilised on the chip; also called Humanized CD3 E&D; humanized CD3 E&D protein
Description: The affinity and kinetic properties of the bispecific antibodies to human CD3 E&D proteins were determined by surface plasmon resonance (SPR) using a Biacore 8K instrument. The human CD3 E&D protein was immobilized on the experimental channel of CMS chip by amino coupling, then the antibody to be tested was subjected to doubling dilution to serial concentrations, flowed through the surfaces of an experimental channel and a reference channel successively for binding, followed by dissociation, the binding and dissociation curve of each sample was obtained, and the results were analyzed and evaluated by Biacore Insight Evaluation software.
The bispecific antibodies of the present disclosure were diluted to 400 nM with 1×HBS-EP+ (10 mM HEPES, pH 7.4, 150 mM NaCl, 3 mM EDTA, 0.05% P20) running buffer, then subjected to doubling dilution to 1.56 nM with this buffer, thus obtaining antibody solutions in a range of concentrations from 400 nM to 1.56 nM. At the end of each experiment, the chip was regenerated by washing with 3M MgCl₂ solution at a flow rate of 30 μL/min for 30 s to remove captured antibody together with antigen. The raw data were analyzed using Biacore Insight Evaluation Software (version 2.0.15.12933) with a 1:1 fit model and affinity and kinetic experimental data of the resulting bispecific antibodies were shown in Table 4.

[5] = molecular target: T1, human Claudin 18.2 (hCLDN18.2) on …; assay: cell-based or functional assay; remark: listed apart in the source
[6] = molecular target: T1, human Claudin 18.2 (hCLDN18.2) on …; assay: FACS on HEK293-hCLDN18.2 cells
Description: as §1, §2

[7] = molecular target: T3, human CD3 (hCD3) naturally expressed on …; assay: FACS on Jurkat cells (natural hCD3), fluorescent anti-human IgG secondary antibody
Description: as §1
HEK293-hCLDN18.2 or Jurkat cells were collected and re-suspended with FACS buffer (PBS+1% BSA+0.5 mM EDTA), after adjusting the cell concentration, 1E5 cells per well were added into a 96-well plate, and then the antibody after gradient dilution was added according to the preset concentration, wherein the negative control was human IgG1AA (Negative-IgG1AA), the positive control of CLDN18.2 was antibody 6#AA, and the positive control of CD3 was antibody h160C9AA. […]

T3 sequence (P07766 23-207): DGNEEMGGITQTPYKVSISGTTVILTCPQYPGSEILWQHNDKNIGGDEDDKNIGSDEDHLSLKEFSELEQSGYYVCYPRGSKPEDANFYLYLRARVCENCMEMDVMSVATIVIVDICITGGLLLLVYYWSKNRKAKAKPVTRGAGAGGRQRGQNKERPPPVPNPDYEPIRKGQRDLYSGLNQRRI
T4 sequence (P07766 23-126, chain 1 of 2): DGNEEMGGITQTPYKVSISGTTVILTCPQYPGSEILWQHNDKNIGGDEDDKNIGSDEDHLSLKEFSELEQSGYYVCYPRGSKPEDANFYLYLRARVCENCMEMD
T4 sequence (P04234 22-105, chain 2 of 2): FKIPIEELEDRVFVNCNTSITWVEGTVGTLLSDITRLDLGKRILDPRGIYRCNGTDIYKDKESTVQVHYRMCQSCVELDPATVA

Row | Binder | ADCC activity, EC50 [1] [nM] | ADCC activity, Maximum lysis (%) [1] [%] | EC50 [2] [nM] | MFI (Max) [2] [MFI] | Jurkat-NFAT luciferase reporter, EC50 [3] [nM] | Jurkat-NFAT luciferase reporter, Fluorescence value (Max) [3] | EC50 [4] [nM] | Top mean fluorescence intensity (Top MFI) [4] [MFI] | Kd (human CD3 E&D protein) [nM] | koff (human CD3 E&D protein) [s⁻¹] | kon (human CD3 E&D protein) [M⁻¹ s⁻¹] | T cell activation, CD25+CD69+ % [5] [%] | T cell activation, EC50 [5] [nM] | TDCC activity, EC50 [5] [nM] | TDCC activity, Maximum lysis (%) [5] [%] | EC50 [6] [nM] | Top mean fluorescence intensity (Top MFI) [6] [MFI] | binding result [7]
1 | B1 | 0.532 | 7.03 | 0.84 | 41800 | 124 | 114000 | 9.3 | 1700 | 17.9 | 0.00365 | 204000 | 33.4 | 0.049 | 0.54 | 30 | 1.18 | 31000 | –
2 | B2 | 0.771 | 6.92 | 0.62 | 39500 | – | 0 | – | 26 | – | – | – | 3.18 | – | 1.45 | 16.3 | 0.95 | 18600 | no binding (tested: about 2e-7 M (log M about -6.7))
3 | B3 | – | – | – | 1040 | 0.32 | 220000 | 0.13 | 2020 | – | – | – | – | – | – | – | – | 897 | –
